The target of data set [1] is glucose dehydrogenase containing the sortase-motif LPXTG. Put plainly: cell-based or functional assay.
Data set [2] concerns the target glucose dehydrogenase harboring a LPKTA motive.

B1: Listeria monocytogenes Sortase A variant E (enzyme)
chain: GSIAVPSVDVNLLVFKGTNTANLLAGATTMRSDQVMGKGNYPLAGHHMRDESMLFGPIMKVKKGDKIYLTDLENLYEYTVTETKTIDETEVSVIDDTKDARITLITCDKPTETTKRFVAVGELEKTEKLTKELENKYFPSKMRGSHHHHHHGS
On to B1, for which, in data set [1], the maximum dE/min is 0.019 dE/min.

B2: N-terminally truncated Streptococcus pyogenes sortase A (protein)
chain: MRGSHHHHHHGSVLQAQMAAQQLPVIGGIAIPELGINLPIFKGLGNTELIYGAGTMKEEQVMGGENNYSLASHHIFGITGSSQMLFSPLERAQNGMSIYLTDKEKIYEYIIKDVFTVAPERVDVIDDTAGLKEVTLVTCTDIEATERIIVKGELKTEYDFDKAPADVLKAFNHSYNQVST
As to B2, the “activity with different LPKTA concentrations” value in data set [2] is listed as “a substrate inhibition effect for St.py. SrtA at concentrations higher than 300 µM”.

B3: Listeria monocytogenes Sortase A variant A (enzyme)
chain: EKDATFDFESVQLPSMTSVIKGAANYDKDAVVGSIAVPSVDVNLLVFKGTNTANLLAGATTMRSDQVMGKGNYPLAGHHMRDESMLFGPIMKVKKGDKIYLTDLENLYEYTVTETKTIDETEVSVIDDTKDARITLITCDKPTETTKRFVAVGELEKTEKLTKELENKYFPSKMRGSHHHHHHGS
Turning to B3, in data set [1], the maximum dE/min was 0.037 dE/min.

B4: Listeria monocytogenes Sortase A variant C (enzyme)
chain: ANYDKDAVVGSIAVPSVDVNLLVFKGTNTANLLAGATTMRSDQVMGKGNYPLAGHHMRDESMLFGPIMKVKKGDKIYLTDLENLYEYTVTETKTIDETEVSVIDDTKDARITLITCDKPTETTKRFVAVGELEKTEKLTKELENKYFPSKMRGSHHHHHHGS
For B4, the “activity with different LPKTA concentrations” value in data set [2] is “The graphs show the higher activity of Listeria monocytogenes Sortase A variant C”. In data set [1], the maximum dE/min worked out at 0.113 dE/min.

B5: Listeria monocytogenes Sortase A variant B (enzyme)
chain: SVIKGAANYDKDAVVGSIAVPSVDVNLLVFKGTNTANLLAGATTMRSDQVMGKGNYPLAGHHMRDESMLFGPIMKVKKGDKIYLTDLENLYEYTVTETKTIDETEVSVIDDTKDARITLITCDKPTETTKRFVAVGELEKTEKLTKELENKYFPSKMRGSHHHHHHGS
Take B5: the maximum dE/min in data set [1] worked out at 0.026 dE/min.

B6: Listeria monocytogenes Sortase A variant D (enzyme)
chain: ANYDKDAVVGSIAVPSVDVNLLVFKGTNTANLLAGATTMRSDQVMGKGNYPLAGHHMRDESMLFGPIMKVKKGDKIYLTDLENLYEYTVTETKTIDETEVSVIDDTKDARITLITCDKPTETTKRFVAVGELEKTEKMRGSHHHHHHGS
The molecule B6 gave a maximum dE/min in data set [1] of 0.044 dE/min.
